Data published in the supplement of paper PMC10567573.

B1: SPATS1 (parent)
chain: GRKKYDIDPRNGIPKLTPGDNPYM

Variants of: B1
Assay: protein stability index of a GFP-peptide fusion (GPS, HEK-293T) (PSI 1-6); higher = more stable
Settings: c terminus: a fixed tail appended
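Further: lentivirally expressed fusions sorted by FACS into six bins by GFP to DsRed ratio, PSI derived from sequencing read proportions per bin multiplied by bin number.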

Variant | protein stability index
GRKKYDIDPRNFIPKLTPGDNPYM [G12F] | 3.34
GRKKYDIDPRNHIPKLTPGDNPYM [G12H] | 3.32
GRKKYDIDPRNVIPKLTPGDNPYM [G12V] | 3.46
GRKKYDIDPRNSIPKLTPGDNPYM [G12S] | 3.57
GRKKYDIDPRNEIPKLTPGDNPYM [G12E] | 3.97
GRKKYDIDPRNRIPKLTPGDNPYM [G12R] | 3.42
GRKKYDIDPRNPIPKLTPGDNPYM [G12P] | 3.9
GRKKYDIDPRNKIPKLTPGDNPYM [G12K] | 3.58
GRKKYDIDPRNMIPKLTPGDNPYM [G12M] | 3.08
GRKKYDIDPRNLIPKLTPGDNPYM [G12L] | 3.09
GRKKYDIDPRNAIPKLTPGDNPYM [G12A] | 3.66
GRKKYDIDPRNTIPKLTPGDNPYM [G12T] | 3.22
GRKKYDIDPRNNIPKLTPGDNPYM [G12N] | 3.21
GRKKYDIDPRNWIPKLTPGDNPYM [G12W] | 2.83
GRKKYDIDPRNDIPKLTPGDNPYM [G12D] | 3.3
GRKKYDIDPRNCIPKLTPGDNPYM [G12C] | 2.48
GRKKYDIDPRNIIPKLTPGDNPYM [G12I] | 2.77
GRKKYDIDPRNYIPKLTPGDNPYM [G12Y] | 2.8
GRKKYDIDPDNGIPKLTPGDNPYM [R10D] | 4.41
GRKKYDIDPCNGIPKLTPGDNPYM [R10C] | 3.77
GRKKYDIDPQNGIPKLTPGDNPYM [R10Q] | 4.14
GRKKYDIDPPNGIPKLTPGDNPYM [R10P] | 3.29
GRKKYDIDPSNGIPKLTPGDNPYM [R10S] | 3.65
GRKKYDIDPGNGIPKLTPGDNPYM [R10G] | 3.68

Variant | protein stability index
GRKKYDIDPINGIPKLTPGDNPYM [R10I] | 3.57
GRKKYDIDPTNGIPKLTPGDNPYM [R10T] | 3.81
GRKKYDIDPLNGIPKLTPGDNPYM [R10L] | 3.53
GRKKYDIDPNNGIPKLTPGDNPYM [R10N] | 3.23
GRKKYDIDPHNGIPKLTPGDNPYM [R10H] | 3.4
GRKKYDIDPANGIPKLTPGDNPYM [R10A] | 3.48
GRKKYDIDPFNGIPKLTPGDNPYM [R10F] | 2.7
GRKKYDIDPENGIPKLTPGDNPYM [R10E] | 4.19
GRKKYDIDPMNGIPKLTPGDNPYM [R10M] | 3.03
GRKKYDIDPKNGIPKLTPGDNPYM [R10K] | 3.92
GRKKYDIDPVNGIPKLTPGDNPYM [R10V] | 2.8
GRKKYDIDPWNGIPKLTPGDNPYM [R10W] | 2.56
GRKKYDIDPYNGIPKLTPGDNPYM [R10Y] | 3.1
GRKKYDADPRNGIPKLTPGDNPYM [I7A] | 3.53
GRKKYDDDPRNGIPKLTPGDNPYM [I7D] | 4.21
GRKKYDFDPRNGIPKLTPGDNPYM [I7F] | 3.11
GRKKYDMDPRNGIPKLTPGDNPYM [I7M] | 2.98
GRKKYDHDPRNGIPKLTPGDNPYM [I7H] | 3.81
GRKKYDQDPRNGIPKLTPGDNPYM [I7Q] | 4.17
GRKKYDVDPRNGIPKLTPGDNPYM [I7V] | 3.83
GRKKYDEDPRNGIPKLTPGDNPYM [I7E] | 4.5
GRKKYDGDPRNGIPKLTPGDNPYM [I7G] | 4.08
GRKKYDPDPRNGIPKLTPGDNPYM [I7P] | 3.71
GRKKYDLDPRNGIPKLTPGDNPYM [I7L] | 3.39

Variant | protein stability index
GRKKYDWDPRNGIPKLTPGDNPYM [I7W] | 2.91
GRKKYDRDPRNGIPKLTPGDNPYM [I7R] | 4.22
GRKKYDSDPRNGIPKLTPGDNPYM [I7S] | 4.25
GRKKYDNDPRNGIPKLTPGDNPYM [I7N] | 3.86
GRKKYDKDPRNGIPKLTPGDNPYM [I7K] | 4.19
GRKKYDTDPRNGIPKLTPGDNPYM [I7T] | 3.75
GRKKYDYDPRNGIPKLTPGDNPYM [I7Y] | 3.45
GRKKYDCDPRNGIPKLTPGDNPYM [I7C] | 3.93
GRKKYDIDPRNGNPKLTPGDNPYM [I13N] | 4.1
GRKKYDIDPRNGFPKLTPGDNPYM [I13F] | 3.99
GRKKYDIDPRNGLPKLTPGDNPYM [I13L] | 3.64
GRKKYDIDPRNGRPKLTPGDNPYM [I13R] | 3.58
GRKKYDIDPRNGPPKLTPGDNPYM [I13P] | 3.86
GRKKYDIDPRNGSPKLTPGDNPYM [I13S] | 3.88
GRKKYDIDPRNGYPKLTPGDNPYM [I13Y] | 2.81
GRKKYDIDPRNGEPKLTPGDNPYM [I13E] | 4.45
GRKKYDIDPRNGVPKLTPGDNPYM [I13V] | 3.82
GRKKYDIDPRNGTPKLTPGDNPYM [I13T] | 3.72
GRKKYDIDPRNGQPKLTPGDNPYM [I13Q] | 3.68
GRKKYDIDPRNGHPKLTPGDNPYM [I13H] | 4.04
GRKKYDIDPRNGMPKLTPGDNPYM [I13M] | 3.36
GRKKYDIDPRNGWPKLTPGDNPYM [I13W] | 3.44
GRKKYDIDPRNGAPKLTPGDNPYM [I13A] | 4.14
GRKKYDIDPRNGGPKLTPGDNPYM [I13G] | 3.78

Variant | protein stability index
GRKKYDIDPRNGCPKLTPGDNPYM [I13C] | 3.82
GRKKYDIDPRNGDPKLTPGDNPYM [I13D] | 4.92
GRKKYDIDPRNGKPKLTPGDNPYM [I13K] | 3.9
GRKKYDIHPRNGIPKLTPGDNPYM [D8H] | 2.82
GRKKYDIFPRNGIPKLTPGDNPYM [D8F] | 2.84
GRKKYDIPPRNGIPKLTPGDNPYM [D8P] | 3.42
GRKKYDIWPRNGIPKLTPGDNPYM [D8W] | 2.68
GRKKYDITPRNGIPKLTPGDNPYM [D8T] | 3.56
GRKKYDILPRNGIPKLTPGDNPYM [D8L] | 3.16
GRKKYDIRPRNGIPKLTPGDNPYM [D8R] | 3.08
GRKKYDIKPRNGIPKLTPGDNPYM [D8K] | 3.14
GRKKYDIVPRNGIPKLTPGDNPYM [D8V] | 3.08
GRKKYDIIPRNGIPKLTPGDNPYM [D8I] | 3.08
GRKKYDIEPRNGIPKLTPGDNPYM [D8E] | 3.72
GRKKYDICPRNGIPKLTPGDNPYM [D8C] | 3.1
GRKKYDIYPRNGIPKLTPGDNPYM [D8Y] | 2.68
GRKKYDIAPRNGIPKLTPGDNPYM [D8A] | 3.02
GRKKYDISPRNGIPKLTPGDNPYM [D8S] | 3.33
GRKKYDINPRNGIPKLTPGDNPYM [D8N] | 3.12
GRKKYDIQPRNGIPKLTPGDNPYM [D8Q] | 3.83
GRKKYDIGPRNGIPKLTPGDNPYM [D8G] | 2.93
GRKKYDIMPRNGIPKLTPGDNPYM [D8M] | 3.18
